Reference: US9995740B2, “Method of determining temperature and method of detecting a target peptide” (SYSMEX CORPORATION, priority 2015, dated 2018)
Residues, ends and D or L forms follow the SMILES beside them. No end group written: not given here.

Experiments:
[1] = Isoelectric point (pI) of the peptides of Table 3; format: physicochemical
[2] = target: T1, HSA (Homo sapiens, UniProt P02768); assay: Kd of TMR-labeled peptide for HSA by fluorescence intensity difference and Hill's equation; format: binding; conditions: for suitability as linker peptide of the peptide for temperature determination (FIG. 8): classified by Kd for HSA, 500 μM or more = suitable
T1 construct: purchased Sigma-Aldrich Co. LLC
Protocol: Each of the resulting mixtures was subjected to measurement with a spectrophotofluorometer [product name: F-7000, manufactured by Hitachi High-Technologies Corporation] and the fluorescence intensity with an excitation wavelength of 540 nm and a fluorescence wavelength of 580 nm (hereinafter, referred to as “fluorescence intensity A”) was measured.
Each of the resulting mixtures was subjected to measurement with a spectrophotofluorometer [product name: F-7000, manufactured by Hitachi High-Technologies Corporation] and the fluorescence intensity with an excitation wavelength of 540 nm and a fluorescence wavelength of 580 nm (hereinafter, referred to as “fluorescence intensity B”) was measured.
Equation (I): Difference between fluorescence intensities=fluorescence intensity A−fluorescence intensity B (I)
A difference between the fluorescence intensities was determined in accordance with the above equation.

[3] = target: T1, HSA; assay: Hydrothermal treatment in the presence of HSA or serum, partition of peptide between supernatant and insoluble fraction (SDS-PAGE, fluorescence image); conditions: for band derived from the peptide in supernatant of hydrothermally-treated sample: SDS-PAGE fluorescence image
[4] = microwave hydrothermal treatment 160° C., in the presence of HSA
[5] = heat transfer 200° C. for 40 minutes, in the presence of HSA (300 or 600 μM), phosphate buffered saline

Compound: CSCC[C@H](NC(=O)[C@H](CO)NC(=O)[C@H](Cc1ccc(O)cc1)NC(=O)[C@@H](N)CO)C(=O)N[C@@H](CCC(=O)O)C(=O)N[C@@H](Cc1c[nH]cn1)C(=O)N[C@@H](Cc1ccccc1)C(=O)N[C@@H](CCCNC(=N)N)C(=O)N[C@@H](Cc1c[nH]c2ccccc12)C(=O)NCC(=O)N[C@@H](CCCCN)C(=O)N1CCC[C@H]1C(=O)N[C@H](C(=O)NCC(=O)N[C@@H](CCCCN)C(=O)N[C@@H](CCCCN)C(=O)N[C@@H](CCCNC(=N)N)C(=O)N[C@@H](CCCNC(=N)N)C(=O)N1CCC[C@H]1C(=O)N[C@H](C(=O)N[C@@H](CCCCN)C(=O)N[C@H](C(=O)N[C@@H](Cc1ccc(O)cc1)C(=O)N1CCC[C@H]1C(=O)N[C@@H](CC(N)=O)C(=O)N[C@@H](C)C(=O)NCC(=O)N[C@@H](CCC(=O)O)C(=O)N[C@@H](CC(N)=O)C(=O)N[C@@H](CCC(=O)O)C(=O)N[C@@H](CO)C(=O)N[C@@H](C)C(=O)N[C@@H](CCC(=O)O)C(=O)N[C@@H](C)C(=O)N[C@@H](Cc1ccccc1)C(=O)N1CCC[C@H]1C(=O)N[C@@H](CC(C)C)C(=O)N[C@@H](CCC(=O)O)C(=O)N[C@@H](Cc1ccccc1)C(=O)O)C(C)C)C(C)C)C(C)C [ACTH (1-39), Adrenocorticotropic hormone (ACTH) (1-39)] (H-SYSMEHFRWGKPVGKKRRPVKVYPNAGENESAEAFPLEF-OH; N-terminus and C-terminus assumed)
- pI [1]: 9.3
- suitability as linker peptide of the peptide for temperature determination (FIG. 8) [2]: suitable

Compound: CC[C@H](C)[C@H](NC(=O)[C@H](CCC(=O)O)NC(=O)[C@H](CC(=O)O)NC(=O)[C@@H](NC(=O)[C@H](CS)NC(=O)[C@H](CC(C)C)NC(=O)[C@@H]1CCCN1C(=O)[C@H](CCCNC(=N)N)NC(=O)[C@H](Cc1c[nH]c2ccccc12)NC(=O)CNC(=O)[C@H](CS)NC(=O)[C@H](CC(C)C)NC(=O)[C@H](Cc1c[nH]c2ccccc12)NC(=O)[C@H](CCC(=O)O)NC(=O)[C@H](CC(=O)O)NC(=O)[C@@H](N)CC(=O)O)[C@@H](C)CC)C(=O)N[C@@H](CC(C)C)C(=O)N[C@@H](CCCNC(=N)N)C(=O)O [SA21] (H-DDEWLCGWRPLCIDEILR-OH; N-terminus and C-terminus assumed)
- Kd ([2]; TMR-labeled peptide, phosphate buffered saline, excitation 540 nm / fluorescence 580 nm): < 500 µM

Compound: (Arg) 10: SEQ ID NO: 21, 10 amino acid residues
- pI [1]: 13
- suitability as linker peptide of the peptide for temperature determination (FIG. 8) [2]: suitable

Compound: (Glu) 10: SEQ ID NO: 18, 10 amino acid residues
- pI [1]: 3.5
- suitability as linker peptide of the peptide for temperature determination (FIG. 8) [2]: suitable

Compound: (Gly) 10: SEQ ID NO: 20, 10 amino acid residues
- pI [1]: 5.5
- suitability as linker peptide of the peptide for temperature determination (FIG. 8) [2]: suitable

Compound: (His)3: SEQ ID NO: 11, 3 amino acid residues (HHH; Synthetic sequence of (His)3)
- pI [1]: 7

Compound: (Lys)10: SEQ ID NO: 6, 10 amino acid residues (KKKKKKKKKK; Synthetic sequence of (Lys)10)
- pI [1]: 11

Compound: ACTH (1-41): SEQ ID NO: 17, 41 amino acid residues (GPSYSMEHFRWGKPVGKKRRPVKVYPNGAEDESAEAFPLEF; Synthetic sequence of ACTH (1-41))
- pI [1]: 8.3
- suitability as linker peptide of the peptide for temperature determination (FIG. 8) [2]: suitable

Compound: ACTH (2-16): SEQ ID NO: 10, 15 amino acid residues (YSMEHFRWGKPVGKK; Synthetic sequence of ACTH (2-16))
- pI [1]: 10

Compound: ACTH (7-11): SEQ ID NO: 5, 5 amino acid residues (FRWGK; Synthetic sequence of ACTH (7-11))
- pI [1]: 11

Compound: Blood coagulation factor XIII (Factor XIII): SEQ ID NO: 15, 25 amino acid residues (AVPPNNSNAAEDDLPTVELQGVVPR; Synthetic sequence of Factor XIII)
- pI [1]: 3.9

Compound: Brain natriuretic peptide [BNP]
- pI [1]: 11
- suitability as linker peptide of the peptide for temperature determination (FIG. 8) [2]: suitable

Compound: C4a: SEQ ID NO: 23, 15 amino acid residues (NGFKSHALQLNNRQI; Synthetic sequence of C4a) [Peptide C4a]
- pI [1]: 11
- suitability as linker peptide of the peptide for temperature determination (FIG. 8) [2]: suitable

Compound: C-peptide: SEQ ID NO: 31, 31 amino acid residues (EAEDLQVGQVELGGGPGAGSLQPLALEGSLQ; Synthetic sequence of C-peptide)
- pI [1]: 3.5
- suitability as linker peptide of the peptide for temperature determination (FIG. 8) [2]: suitable

Compound: Colistin
- suitability as linker peptide of the peptide for temperature determination (FIG. 8) [2]: suitable

Compound: Cp6: SEQ ID NO: 22, 8 amino acid residues (DIGEEFNQ; Synthetic sequence of Cp6)
- pI [1]: 3.6
- suitability as linker peptide of the peptide for temperature determination (FIG. 8) [2]: suitable

Compound: Dynorphin A (YGGFLRRIRPKLK; Synthetic sequence of Dynorphin A)
- pI [1]: 11.7
- suitability as linker peptide of the peptide for temperature determination (FIG. 8) [2]: suitable

Compound: Fibrinogen α: SEQ ID NO: 12, 25 amino acid residues (DEAGSEADHEGTHSTKRGHAKSRPV; Synthetic sequence of Fibrinogen alpha)
- pI [1]: 6.3

Compound: Glucagon (1-29): SEQ ID NO: 4, 29 amino acid residues
- pI [1]: 6.8

Compound: HSA 237-249 fragment: SEQ ID NO: 26, 13 amino acid residues (AWAVARLSQRFPK; Synthetic sequence of HSA237-249)
- pI [1]: 12
- suitability as linker peptide of the peptide for temperature determination (FIG. 8) [2]: suitable

Compound: HSA 599-609 fragment: SEQ ID NO: 30, 11 amino acid residues (LVAASQAALGL; Synthetic sequence of HSA599-609)
- pI [1]: 5.5
- suitability as linker peptide of the peptide for temperature determination (FIG. 8) [2]: suitable

Compound: ITIH4: SEQ ID NO: 28, 21 amino acid residues (NVHSAGAAGSRMNFRPGVLSS; Synthetic sequence of ITIH4)
- pI [1]: 12
- suitability as linker peptide of the peptide for temperature determination (FIG. 8) [2]: suitable

Compound: Kininogen: SEQ ID NO: 7, 19 amino acid residues (HNLGHGHKHERDQGHGHQR; Synthetic sequence of Kininorgen)
- pI [1]: 8.8

Compound: TMR-labeled ACTH (1-24): ACTH (1-24) labeled with tetramethyl rhodamine (TMR)
- band derived from the peptide in supernatant of hydrothermally-treated sample [3, 4]: not observed

Compound: TMR-labeled ACTH (1-39): ACTH (1-39) labeled with tetramethyl rhodamine (TMR) (SYSMEHFRWGKPVGKKRRPVKVYPNAGENESAEAFPLEF; also: tetramethyl rhodamine (TMR) label, position not given here)
- band derived from the peptide in supernatant of hydrothermally-treated sample [3, 4]: observed

Compound: TMR-labeled HSA 599-609 fragment: HSA 599-609 fragment labeled with tetramethyl rhodamine (TMR) (LVAASQAALGL; also: tetramethyl rhodamine (TMR) label, position not given here)
- band derived from the peptide in supernatant of hydrothermally-treated sample [3, 5]: observed

Compound: TMR-labeled SA21: SA21 labeled with tetramethyl rhodamine; used as peptide for phase partition determination (DDEWLCGWRPLCIDEILR; cysteine pairing not given here; also: tetramethyl rhodamine (TMR) label, position not given here)
- partition of peptide after hydrothermal treatment ([3]; 160° C., serum-containing sample M, observed under visible light): transferred to the insoluble fraction
- band derived from the peptide in supernatant of hydrothermally-treated sample [3, 5]: light band

Compound: lqp: SEQ ID NO: 13, 12 amino acid residues (GKYFNAAEYHAQ; Synthetic sequence of lqp)
- pI [1]: 6.8

Compound: β-amyloid (1-40): SEQ ID NO: 1, 40 amino acid residues
- pI [1]: 5.3

Compound: β-amyloid (1-42): SEQ ID NO: 2, 42 amino acid residues
- pI [1]: 5.3
